According to publication PMC12033910:

Target: holo-PhuS H209A (Pseudomonas aeruginosa PAO1, UniProt O68880 1-354, H209A)
Experiment: EMSA

B1: prrF1-50 (5'-biotin) (dsDNA)
DNA 1: AGCAGAAAAGTTTGGCGAAAGCGTTTGACATGGAAATGAGAATCATTATT
DNA 2: AATAATGATTCTCATTTCCATGTCAAACGCTTTCGCCAAACTTTTCTGCT
B1: binds.
